Each block holds one binder with its values, some of them ahead of it.
What was measured:
[1] = biological target: endogenous TDP-43 of murine N2a cells and mouse brain (mouse, UniProt Q921F2 1-414); test: co-immunoprecipitation from N2a cells and mouse brain
[2] = biological target: YES-associated protein (YAP) (UniProt P46937 1-504); test: co-precipitation with expressed Fx
[3] = biological target: FOXO1 (UniProt Q12778 1-655, limits assumed); test: co-precipitation with expressed Fx
Chain of FOXO1 (Q12778 whole entry): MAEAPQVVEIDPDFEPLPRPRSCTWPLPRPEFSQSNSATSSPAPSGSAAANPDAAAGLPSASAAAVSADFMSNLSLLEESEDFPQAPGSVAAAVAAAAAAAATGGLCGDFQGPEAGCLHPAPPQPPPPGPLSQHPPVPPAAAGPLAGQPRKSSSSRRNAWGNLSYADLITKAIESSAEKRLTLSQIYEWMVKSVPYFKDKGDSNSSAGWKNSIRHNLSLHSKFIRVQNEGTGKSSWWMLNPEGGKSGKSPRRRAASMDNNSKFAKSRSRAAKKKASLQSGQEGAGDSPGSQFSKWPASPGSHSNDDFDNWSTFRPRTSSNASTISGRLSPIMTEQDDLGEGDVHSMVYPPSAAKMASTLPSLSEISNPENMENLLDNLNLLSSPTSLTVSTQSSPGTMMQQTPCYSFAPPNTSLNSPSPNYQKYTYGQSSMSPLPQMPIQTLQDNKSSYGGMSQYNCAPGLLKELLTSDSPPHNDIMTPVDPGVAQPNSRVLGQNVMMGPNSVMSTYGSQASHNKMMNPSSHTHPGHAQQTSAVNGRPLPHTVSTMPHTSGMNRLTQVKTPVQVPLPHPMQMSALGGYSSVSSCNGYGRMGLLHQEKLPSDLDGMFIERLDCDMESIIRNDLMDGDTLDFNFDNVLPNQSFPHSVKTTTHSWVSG

Chain of YES-associated protein (YAP) (P46937 whole entry): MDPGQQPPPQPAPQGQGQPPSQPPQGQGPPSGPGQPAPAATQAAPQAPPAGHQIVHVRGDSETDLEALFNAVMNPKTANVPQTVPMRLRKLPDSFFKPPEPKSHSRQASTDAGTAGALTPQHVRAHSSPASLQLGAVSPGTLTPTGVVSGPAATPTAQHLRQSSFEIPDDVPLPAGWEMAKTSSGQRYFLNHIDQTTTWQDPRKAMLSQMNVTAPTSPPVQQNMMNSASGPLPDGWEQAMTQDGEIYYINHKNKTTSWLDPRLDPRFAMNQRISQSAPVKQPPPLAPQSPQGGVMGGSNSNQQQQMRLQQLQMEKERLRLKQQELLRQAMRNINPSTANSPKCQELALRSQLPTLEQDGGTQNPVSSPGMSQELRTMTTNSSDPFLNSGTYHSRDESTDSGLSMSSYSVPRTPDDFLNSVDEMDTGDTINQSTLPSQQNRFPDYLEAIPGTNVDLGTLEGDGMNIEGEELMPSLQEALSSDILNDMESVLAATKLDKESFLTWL
Chain of endogenous TDP-43 of murine N2a cells and mouse brain (Q921F2 whole entry): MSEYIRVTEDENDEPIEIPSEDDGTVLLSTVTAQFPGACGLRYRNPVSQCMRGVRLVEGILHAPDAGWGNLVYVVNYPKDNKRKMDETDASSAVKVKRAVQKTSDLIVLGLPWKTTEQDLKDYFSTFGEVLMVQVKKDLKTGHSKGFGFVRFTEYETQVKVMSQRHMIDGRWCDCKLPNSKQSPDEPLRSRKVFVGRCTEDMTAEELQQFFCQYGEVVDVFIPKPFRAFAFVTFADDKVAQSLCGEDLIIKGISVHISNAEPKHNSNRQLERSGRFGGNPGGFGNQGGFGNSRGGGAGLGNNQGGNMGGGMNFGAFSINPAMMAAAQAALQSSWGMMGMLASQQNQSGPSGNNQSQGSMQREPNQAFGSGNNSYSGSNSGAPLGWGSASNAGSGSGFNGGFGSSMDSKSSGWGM

binding result [1]: binds
B1: endogenous 14-3-3θ of murine N2a cells and mouse brain (other, UniProt P68254 1-245, looked up)
chain: MEKTELIQKAKLAEQAERYDDMATCMKAVTEQGAELSNEERNLLSVAYKNVVGGRRSAWRVISSIEQKTDTSDKKLQLIKDYREKVESELRSICTTVLELLDKYLIANATNPESKVFYLKMKGDYFRYLAEVACGDDRKQTIENSQGAYQEAFDISKKEMQPTHPIRLGLALNFSVFYYEILNNPELACTLAKTAFDEAIAELDTLNEDSYKDSTLIMQLLRDNLTLWTSDSAGEECDAAEGAEN

binding result [2]: no binding
binding result [3]: no binding
Binder: GDDRKQTIDNSQGAYQEAFDISKKEMQPTH (not shown: V5 tag) [14-3-3θ-Fx-V5 (α-helix 6 (αF) of 14-3-3θ alone)]
